These results are taken from patent US20200071378A1 (SHATTUCK LABS, published 2020).

The EC50 (read off the curve) is the midpoint of the concentration-response curve. Higher therefore signals lower potency in that assay. What is called EC50 is the concentration at which the effect is half-maximal. Higher therefore signals a need for much substance. For orientation: Kd means a measure of binding affinity in units of concentration. As usually defined, the koff is a measure of how fast the partners let go of each other. A high value points to fast dissociation. What is called kon is a measure of how fast the partners come together. Read a high kon as fast association.

The target of assay [1] is T1, human IgG (plate-bound).
T1 construct: Capture reagent as printed; It may in fact be an anti-human IgG antibody; also called hIgG
Kind of assay: ELISA, left panel; sheet header 'IgG ELISA, H&L Capture, Fc-HRP Detect'; paragraph 219: capture on plate-bound human IgG, detection with HRP-conjugated anti-human IgG antibody. The source says:
Specifically, the Fc portion of the chimeric protein was detected by capturing to a plate-bound human IgG and detecting via an HRP-conjugated anti-human IgG antibody (left panel of FIG. 3). The OX40 domain of the chimeric protein was detected by capturing to a plate-bound recombinant human OX40 protein and detecting via an anti-OX40-specific antibody (right panel of FIG. 3). It was observed that in ELISA assays, using the central Fc region to detect chimeric proteins tended to underestimate the actual protein content in a sample. Therefore, low level of the hVSIG8-Fc-OX40L chimeric protein was detected compared to standard in this assay.
(An ELISA detects its analyte on a solid surface through an enzyme-linked reagent.)

The target in assay [2] is T2, human OX40 expressed on cells (Jurkat/hOX40) (human, UniProt P43489 29-277).
T2 construct: whole, on cells; also called Jurkat cells engineered to overexpress human OX40; OX40 present on the cell surface
T2 sequence (looked up): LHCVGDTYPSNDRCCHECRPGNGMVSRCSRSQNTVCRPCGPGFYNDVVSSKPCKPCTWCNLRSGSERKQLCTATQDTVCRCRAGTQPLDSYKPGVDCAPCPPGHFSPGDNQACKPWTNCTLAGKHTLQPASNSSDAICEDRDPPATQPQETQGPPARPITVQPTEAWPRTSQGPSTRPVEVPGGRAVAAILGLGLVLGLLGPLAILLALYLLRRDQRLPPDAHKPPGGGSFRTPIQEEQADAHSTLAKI
Kind of assay: flow cytometry on Jurkat/hOX40 cells. The protocol:
For cell binding assays, immortalized cell lines were engineered to stably express human OX40 (Jurkat/hOX40). Increasing concentrations of the VSIG8-Fc-OX40L chimeric protein were incubated with the over-expressing (Jurkat/hOX40) cell line for two hours. Cells were collected, washed, and stained with antibodies for the detection of chimeric protein binding by flow cytometry.
On the technique in general: In flow cytometry, cells or beads pass a laser one at a time.

Assay [3] has as its target T3, hOX40-His (human, UniProt P43489 29-216, limits assumed).
T3 construct: also called human OX40
T3 sequence (looked up): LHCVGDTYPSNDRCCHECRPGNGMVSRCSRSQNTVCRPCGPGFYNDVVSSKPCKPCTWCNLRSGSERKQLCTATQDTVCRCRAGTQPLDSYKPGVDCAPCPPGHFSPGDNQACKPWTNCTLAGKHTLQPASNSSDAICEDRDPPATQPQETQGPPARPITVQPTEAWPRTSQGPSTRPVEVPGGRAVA
Kind of assay: SPR/Octet kinetics on hOX40-His, against the control Fc-OX40L. Background: BLI is a label-free optical method that tracks binding on a fibre tip over time.

The target of assay [4] is T3, hOX40-His. Kind of assay: SPR (BioRad ProteOn XPR 360) per Example 5; FIG. 5 legend says biolayer interferometry (Octet); hOX40-His as ligand, analyte at 117.6 nM.
Assay [5] has as its target T3, hOX40-His. Kind of assay: SPR (BioRad ProteOn XPR 360) per Example 5; FIG. 5 legend says biolayer interferometry (Octet); hOX40-His as ligand, analyte at 222.2 nM.
Assay [6] has as its target T4, recombinant murine OX40-His (murine, UniProt P47741 20-211, limits assumed).
T4 construct: Coated on penta-his biosensors; also called mOX40
T4 sequence (looked up): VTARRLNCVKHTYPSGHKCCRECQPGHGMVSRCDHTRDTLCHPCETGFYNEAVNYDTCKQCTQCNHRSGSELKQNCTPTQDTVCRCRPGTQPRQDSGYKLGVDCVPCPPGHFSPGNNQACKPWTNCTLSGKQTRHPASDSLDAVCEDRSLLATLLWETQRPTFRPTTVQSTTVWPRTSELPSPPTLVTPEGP
Kind of assay: biolayer interferometry, 'Octet Binding Affinities, Ligand: mouse OX40-His'; penta-His biosensors; Example 11 calls it SPR.

B1: human VSIG8-Fc-OX40L chimeric protein (Fc fusion)
chain: VRINGDGQEVLYLAEGDNVRLGCPYVLDPEDYGPNGLDIEWMQVNSDPAHHRENVFLSYQDKRINHGSLPHLQQRVRFAASDPSQYDASINLMNLQVSDTATYECRVKKTTMATRKVIVTVQARPAVPMCWTEGHMTYGNDVVLKCYASGGSQPLSYKWAKISGHHYPYRAGSYTSQHSYHSELSYQESFHSSINQGLNNGDLVLKDISRADDGLYQCTVANNVGYSVCVVEVKVSDSRRIGCPPCPAPEFLGGPSVFLFPPKPKDQLMISRTPEVTCVVVDVSQEDPEVQFNWYVDGVEVHNAKTKPREEQFNSTYRVVSVLTVLHQDWLSGKEYKCKVSSKGLPSSIEKTISNATGQPREPQVYTLPPSQEEMTKNQVSLTCLVKGFYPSDIAVEWESNGQPENNYKTTPPVLDSDGSFFLYSRLTVDKSRWQEGNVFSCSVLHEALHNHYTQKSLSLSLGKIEGRMDQVSHRYPRIQSIKVQFTEYKKEKGFILTSQKEDEIMKVQNNSVIINCDGFYLISLKGYFSQEVNISLHYQKDEEPLFQLKKVRSVNSLMVASLTYKDKVYLNVTTDNTSLDDFHVNGGELILIHQNPGEFCVL
notes: also called hVSIG8-Fc-OX40L
Consider B1, for which the half-maximal effective concentration (EC50 (read off the curve)) in assay [1] was approximately 0.006 µM. In addition, the EC50 in assay [2] was approximately 0.03 µM. Further, in assay [3], the “fold slower off-rate than the Fc-OX40L protein” value amounted to 10 fold. In assay [4], this molecule gave a Kd of 0.000767 µM, a koff of 0.000254 s⁻¹ and an association rate constant (kon) of 331000 M⁻¹ s⁻¹.

B2: commercially-available single-sided human Fc-OX40L (Fc fusion, UniProt P23510 51-183, looked up)
chain: QVSHRYPRIQSIKVQFTEYKKEKGFILTSQKEDEIMKVQNNSVIINCDGFYLISLKGYFSQEVNISLHYQKDEEPLFQLKKVRSVNSLMVASLTYKDKVYLNVTTDNTSLDDFHVNGGELILIHQNPGEFCVL
notes: Bought control; also called hFc-OX40L; recombinant control protein; not shown: Fc part of a bought control protein, not described
For the molecule B2, in assay [5], the Kd stood at 0.061 µM, the koff was found to be 0.00254 s⁻¹ and the kon was determined as 41700 M⁻¹ s⁻¹.

B3: commercially-available mFc-OX40L (Fc fusion, murine, UniProt P43488 51-198, looked up)
chain: SSSPAKDPPIQRLRGAVTRCEDGQLFISSYKNEYQTMEVQNNSVVIKCDGLYIIYLKGSFFQEVKIDLHFREDHNPISIPMLNDGRRIVFTVVASLAFKDKVYLTVNAPDTLCEHLQINDGELIVVQLTPGYCAPEGSYHSTVNQVPL
notes: Bought control; Construct is not described; also called commercially-available recombinant control protein; not shown: Fc part of a bought control protein, not described
With B3, in assay [6], the binding result is listed as “binds”.
